How the values were obtained:
[1] = biological target: 6-His-LIMK2 (recombinant, E. coli) (UniProt P53671)
[2] = biological target: 6-His-PHLDA1 (recombinant, E. coli) (UniProt Q8WV24)
6-His-PHLDA1 (recombinant, E. coli), sequence (Q8WV24 whole entry): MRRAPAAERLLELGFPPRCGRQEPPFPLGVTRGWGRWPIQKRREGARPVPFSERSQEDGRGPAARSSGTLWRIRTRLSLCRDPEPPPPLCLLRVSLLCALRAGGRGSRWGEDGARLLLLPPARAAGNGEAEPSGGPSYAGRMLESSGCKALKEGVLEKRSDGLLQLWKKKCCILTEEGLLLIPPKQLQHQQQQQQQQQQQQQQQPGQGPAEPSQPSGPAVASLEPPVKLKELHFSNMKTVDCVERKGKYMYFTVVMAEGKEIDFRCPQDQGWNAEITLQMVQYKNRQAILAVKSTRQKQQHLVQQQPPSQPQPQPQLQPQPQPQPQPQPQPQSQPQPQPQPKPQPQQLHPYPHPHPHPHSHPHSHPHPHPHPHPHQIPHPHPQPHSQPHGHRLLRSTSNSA

6-His-LIMK2 (recombinant, E. coli), sequence (P53671 whole entry, looked up): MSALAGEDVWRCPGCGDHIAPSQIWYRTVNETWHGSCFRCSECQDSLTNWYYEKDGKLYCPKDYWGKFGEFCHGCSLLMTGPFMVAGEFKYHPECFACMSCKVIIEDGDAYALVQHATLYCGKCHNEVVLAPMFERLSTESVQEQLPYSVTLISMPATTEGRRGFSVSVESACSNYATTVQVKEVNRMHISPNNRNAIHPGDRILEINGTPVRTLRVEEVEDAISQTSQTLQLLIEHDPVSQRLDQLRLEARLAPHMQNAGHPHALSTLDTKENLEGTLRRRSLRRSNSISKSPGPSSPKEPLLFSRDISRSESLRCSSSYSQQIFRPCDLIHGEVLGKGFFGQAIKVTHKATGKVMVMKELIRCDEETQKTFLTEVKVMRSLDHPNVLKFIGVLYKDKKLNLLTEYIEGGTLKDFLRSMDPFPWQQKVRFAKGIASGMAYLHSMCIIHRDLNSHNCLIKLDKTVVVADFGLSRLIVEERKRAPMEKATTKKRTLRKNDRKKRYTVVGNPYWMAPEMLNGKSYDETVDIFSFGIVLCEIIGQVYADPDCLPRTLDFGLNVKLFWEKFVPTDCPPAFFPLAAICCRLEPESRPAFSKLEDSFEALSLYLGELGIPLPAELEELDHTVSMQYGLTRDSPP

6-His-Aurora-A (recombinant, wild type, from Sf9 insect cells)
LIMK2 kinase activity (cofilin phosphorylation) after pre-incubation with Aurora A [1]: LIMK2 preincubated with Aurora A showed increased kinase activity (lane 2) | in vitro kinase assay with recombinant Aurora A/TPX2 and 6-His-LIMK2 (phosphorylation of LIMK2) [1]: Aurora A directly phosphorylates LIMK2 (FIG. 5A, lane 2) | in vitro phosphorylation of wild-type, S283A, T494A and T505A LIMK2 alleles by Aurora A/TPX2 [1]: Aurora A phosphorylates LIMK2 at all these sites (FIG. 8A) | in vitro kinase assay with Aurora A/TPX2 and [γ-32P]ATP (phosphorylation of PHLDA1) [2]: Aurora A directly phosphorylated PHLDA1 (FIG. 1A, lane 2) | in vitro phosphorylation of wild-type, Ser78A and Ser98A PHLDA1 alleles by Aurora A/TPX2 [2]: Aurora A was found to predominantly phosphorylate PHLDA1 at Ser98 (FIG. 2C) | in vitro kinase assay, cofilin phosphorylation with [32P] ATP (6-His-cofilin): Aurora A does not phosphorylate cofilin (FIG. 6H, lanes 1 and 4)

From patent publication US20130253037
